Experimental data published in patent publication US20080020399A1.

Assays:
[1] = target: rat liver insulin receptor purified by wheat germ lectin affinity chromatography (rat) (UniProt P15127); assay: cell-based or functional assay
[2] = tested on: biotinylated hIRS-1-p30 (domain D516-P777 of human IRS-1)
biotinylated hIRS-1-p30 (domain D516-P777 of human IRS-1), sequence (chain, as listed by the source): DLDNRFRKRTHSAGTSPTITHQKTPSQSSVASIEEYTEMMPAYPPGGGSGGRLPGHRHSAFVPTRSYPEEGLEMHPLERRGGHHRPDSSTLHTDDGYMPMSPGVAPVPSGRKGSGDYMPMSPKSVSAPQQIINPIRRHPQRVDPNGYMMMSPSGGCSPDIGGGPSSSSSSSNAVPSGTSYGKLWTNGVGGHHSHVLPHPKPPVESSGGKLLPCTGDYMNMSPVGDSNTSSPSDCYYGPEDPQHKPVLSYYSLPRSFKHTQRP

rat liver insulin receptor purified by wheat germ lectin affinity chromatography (rat), sequence (P15127 27-1383 limits assumed, form in doubt): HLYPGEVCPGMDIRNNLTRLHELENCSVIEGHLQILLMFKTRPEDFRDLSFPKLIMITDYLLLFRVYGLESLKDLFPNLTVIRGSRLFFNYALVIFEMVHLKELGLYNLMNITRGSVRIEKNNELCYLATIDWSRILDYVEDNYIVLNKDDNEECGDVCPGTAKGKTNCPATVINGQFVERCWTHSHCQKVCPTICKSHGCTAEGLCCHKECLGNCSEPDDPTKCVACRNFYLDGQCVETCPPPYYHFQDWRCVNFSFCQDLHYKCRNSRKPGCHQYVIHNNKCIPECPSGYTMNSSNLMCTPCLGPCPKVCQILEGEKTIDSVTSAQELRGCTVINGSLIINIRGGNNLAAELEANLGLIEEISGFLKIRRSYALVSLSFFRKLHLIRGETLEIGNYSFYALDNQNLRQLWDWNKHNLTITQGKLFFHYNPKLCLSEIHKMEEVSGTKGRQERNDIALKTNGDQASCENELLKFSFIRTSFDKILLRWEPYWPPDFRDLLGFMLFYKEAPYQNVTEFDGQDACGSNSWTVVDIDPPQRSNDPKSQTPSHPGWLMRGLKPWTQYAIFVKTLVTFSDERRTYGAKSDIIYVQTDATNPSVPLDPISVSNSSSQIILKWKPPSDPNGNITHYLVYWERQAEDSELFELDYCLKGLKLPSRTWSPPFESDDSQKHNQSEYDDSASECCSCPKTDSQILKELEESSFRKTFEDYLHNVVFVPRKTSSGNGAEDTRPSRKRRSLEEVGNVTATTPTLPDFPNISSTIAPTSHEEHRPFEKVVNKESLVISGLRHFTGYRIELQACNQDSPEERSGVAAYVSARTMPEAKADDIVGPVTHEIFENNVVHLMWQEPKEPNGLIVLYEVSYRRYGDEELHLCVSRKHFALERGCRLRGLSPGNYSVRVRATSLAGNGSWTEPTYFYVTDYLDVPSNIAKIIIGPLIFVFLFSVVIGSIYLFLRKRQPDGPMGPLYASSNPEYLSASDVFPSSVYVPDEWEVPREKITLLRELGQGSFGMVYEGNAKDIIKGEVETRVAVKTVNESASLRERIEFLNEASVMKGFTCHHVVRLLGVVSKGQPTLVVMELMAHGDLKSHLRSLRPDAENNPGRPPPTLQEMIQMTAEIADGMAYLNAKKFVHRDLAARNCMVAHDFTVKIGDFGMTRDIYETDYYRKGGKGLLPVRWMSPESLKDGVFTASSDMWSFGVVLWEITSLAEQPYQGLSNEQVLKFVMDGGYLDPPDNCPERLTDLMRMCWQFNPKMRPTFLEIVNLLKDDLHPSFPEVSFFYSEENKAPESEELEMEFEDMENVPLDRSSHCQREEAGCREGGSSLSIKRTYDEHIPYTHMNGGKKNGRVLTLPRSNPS

Row | ALPHAScreen readout of tyrosine phosphorylation of 85 nM biotinylated IRS fragment by the insulin-stimulated receptor [1] [nM] | Substance | phosphorylation of the biotinylated IRS-1 fragment (ALPHAScreen, p-Ser antibody) [2]
1 | 10 | human insulin (from UniProt P01308 25-54; P01308 90-110) (ligand) | 
2 |  | protein kinase C (serine kinase PKCδ) | can be phosphorylated in the biotinylated state by the serine kinase PKCδ
